We go through three proteins from PMC5892457, “Characterisation of novel biomass degradation enzymes from the genome of Cellulomonas fimi” (Enzyme and Microbial Technology, 2018).

Test in all cases: purified protein
What all share (type): biochemical, Cellulomonas fimi

Substrate in data set [1]: O=[N+]([O-])c1ccccc1O[C@@H]1O[C@H](CO)[C@@H](O[C@@H]2O[C@H](CO)[C@@H](O)[C@H](O)[C@H]2O)[C@H](O)[C@H]1O
The following applies: pH 6.0, 60 °C, partially purified enzyme, printed value differs between text and Table 3.

Substrate in data set [2]: O=[N+]([O-])c1ccc(O[C@@H]2O[C@@H](CO)[C@H](O)[C@H]2O)cc1
To be noted: pH 6.5, 45 °C, partially purified enzyme.

Substrate in data set [3]: O=[N+]([O-])c1ccccc1O[C@@H]1OC[C@@H](O)[C@H](O)[C@H]1O
The following applies: pH 6.0, 45 °C, partially purified enzyme, points at 20 mM and above excluded (substrate precipitation).

Usually Km stands for the concentration of substrate that gives half-maximal velocity.

B1: XynF (Cellulomonas fimi ATCC 484) (protein)
chain: AGSTLQAAAAESGRYFGTAIAASRLSDGTYTGIANREFNMITAENEMKMDATEPNRGQFSYSNGDRIVNWARQNGKQVRGHALAWHSQQPGWMQNLSGTDLRNAMLNHVTQVATYYRGKIYAWDVVNEAYADGSSGARRDSNLQRTGNDWIEAAFRAARAADPNAKLCYNDYNTDNWSHAKTQGVYNMVKDFKARGVPIDCVGFQAHFNSGNPVPSNYHTTLQNFADLGVDVQITELDIEGSGSSQAQQYQGVVQACLAVSRCTGITVWGVRDTDSWRASGTPLLFDGSGNKKAAYTSVLNALNAGGTTTPTPNPTNPTPTPTPTNPGGGSPSCTATYSEGQKWGDRFNGTVTIRATTNISSWQSTVTVRSPQKIIATWNGSPTWDSSGNVMTMRPSGSGALAAGQSTSFGFTVQHNGNWTWPSVTCAAS
notes: ORF with TAT signal peptide and CBMII as BioBrick, E. coli JM109, untagged; partially purified (DEAE-, CM-Sepharose)
Turning to B1, the Km in data set [1] amounted to 58 mM.

B2: AfsB (Cellulomonas fimi ATCC 484) (protein)
chain: MFPVRLTLDPAFRVGPVRRRTFGSFVEHLGRCVYTGIHDPGHPTADADGFRKDVLELTRELGVSTVRYPGGNFVSGYRWEDGVGPVEQRPTRLDLAWHSLEPNTVGVDEFMRWAALAEVEPMMAVNLGTRGVQEALDLLDYCNGTAPTYWADQRRANGATDPYAIKMWCLGNEMDGPWQIGSKTAHEYGRLAAETGRAMKMVDPTLELVACGSSGVVMPTFGEWERIVLSEAYEQVDYVSAHAYYWEEDGDLGSFLASATDMDHFVESVTATADAVRAHKKVSKRIHISFDEWNVWYQKRAESRPPTGDDWPVAPVLLEDRYNVADAVVVGNLLISLLRHTDRVHAASLAQLVNVIAPIMTEPGGRSWKQTIFHPFAQASRYAAGDVLQVAIDAPTYETARYGDAALVDAVATRDPETGATTLFAVNRSLTEPALLEVDTRALPGLRVLDASTLSNPDHTWAATADDDTSVAPRANTTAEIRDGRLTVQVPPVSWNVVRLGA
notes: full ORF as BioBrick, E. coli JM109, untagged; partially purified (DEAE-Sepharose, phenyl-agarose)
In the case of B2, the Km in data set [2] amounted to 6.8 mM.

B3: BxyF (Cellulomonas fimi ATCC 484) (protein)
chain: MTRRLVPELEVRRHLVEDYADFTQIPEAVVARWKAPFGPPEDWDLTVVDHTVPGPHGPVPVRVYTPVGTPPDGGRACLVWMHGGAFSWGDLDMAEAHEVARGVAGRADVVVVSVDYRLCPVMPELGGTVGDRVDERGEPVRFPVPQDDCAAVLDAVRADPARFGVDAARVAIGGASAGAFLAAAVTLRAVEDGRAPWQTLLVYPMLHPRVPALGTELAEAVEAAPRALQLPAWMVEATNRTVLGREPEPSDDEAFPGLAARLEGFPPTYVENGELDAFRASGERFSTRLRAAGVDVVEVTRSGVPHGHLDWVGFGPARDTLDALAQRLRAPSAADRQALDELRVDGAPASDAPLHHVWNRCVGAGRANEALRADWQAHLREAVDVLGVRSVRFHGLFHDDMFVYRSTYGGGFAPPEVLPEPLITFSYVDMVFDALLDAGARPFVELGFMPRELATQTETLFWWKAHCSPPTDMAEWVRLVSETVRHWIERYGLDEVRQWRFEVWNEPNLVPHFWTGTRTEYFALYEATARALKAIDLQLRVGGPSTSVFVPDARYAGETYDHAAEFATGRAPDPDALDWQPVWVRELVDYCAERDLPLDFLSTHLYPTDYAADGTGSGVTAIHRHVDATEQDLRLLQELIAASPYPDAELHITEWSSSPSSRDRTHDTLFAATYITRAFLKGAALADSISYWTFTDIFEEGGAGLGPFHGGFGFVNEQGIHKPTFHAVAMLNRLGDRVVHQDEHGIITRSSGDGHVSAVFLNYPAEMGTRGVEQHDTYAAARAYREIGTARRVRRTVAGLEPGTVFQVEVLDWEHGNAAEAWHQMGEPLNLTRAQTTELKTVADDLRRWTITVPDSGVLEIDLDLPAWAVASVAPVTPTPSPTTNDAPSPTSSRQG
notes: as for B2
For the protein B3, in data set [3], the Km is 1.7 mM.
